B1: Flag-BNIP3 wild-type (BCL2/adenovirus e1B 19 kDa protein interacting protein 3) [rat] / GFP-LC3 (microtubule-associated protein 1 light chain 3; plasmid pEGFP-C1-LC3B) [not stated] (parent)
chain 1: MSQSGEENLQGSWVELHFSNGNGSSVPASVSIYNGDMEKILLDAQHESGRSSSKSSHCDSPPRSQTPQDTNRAEIDTHSFGEKNSTLSEEDYIERRREVESILKKNSDWIWDWSSRPENVPPKEFLFKHPKRTATLSMRNTSVMKKGGIFSADFLKVFLPSLLLSHLLAIGLGIYIGRRLTTSTSTF
chain 2: not shown

Variants of: B1
Experiment: co-IP (anti-Flag immunoprecipitation, western blot, quantified)
Conditions: with GFP-LC3 (microtubule-associated protein 1 light chain 3; plasmid pEGFP-C1-LC3B); HeLa cells, 48 h after transfection; n = 3; means ± SEM; read off a plot

Variant	ratio to parent (Folds of Control)
chain 1 S60A T66A	0.13
chain 1 S60D	0.85
chain 1 S60A	0.33
chain 1 S60E	0.85

— publication PMC9672126
